The values below come from US20240117047A1 (University of California, published 2024).

Changes are numbered by the printed parent chain.

B1: UC-106 (antibody, V domains shown)
VH: QIQLVQSGPELKKPGETVKISCKASGYTFTYYPIHWVKQAPGKGLKWMGWINTYSGVPTYADDFKGRFAFSLETSANTAYLQINNLRNEDMATYFCARGDSSLFDYWGQGTTLTVSS
VL: GHQMTQSPSSLSASLGERVSLTCRASQEISGYLIWLQQKPDGTIKRLIYAASTLNSGVPKRFSGSRSGSDYSLTISSLESEDFADYYCLQYTSYPLTFGAGTKLELKR
notes: Mouse-derived anti-hROR1 mAb, detected with anti-mouse IgG
B2: UC-107 (antibody, V domains shown)
VH: B1 VH with Y31N, I83L
VL: B1 VL with G1D, H2V, T5I, K45T, N55D
notes: Mouse-derived anti-hROR1 mAb, detected with anti-mouse IgG; also called UC-107 mAb
B3: UC-102 (antibody, V domains shown)
VH: DVHLQESGPGLVKPSQSLSVTCTVTGYSITGSYSWNWIRQFPGNKLEWMGYIHSSGTTNYNPSLKSRISFTRDTSKNQLFLQLNSVTTEDTATYYCTRGFAYWGQGTLVTVSA
VL: NIVMTQSPSSMSASLGDRITITCQATQDIVKNLNWYQQKPGKPPSFLIYYTTELAEGVPSRFSGSGSGSDYSLTISNLESEDFADYYCLQFYEFPPTFGAGTKLELKR
notes: Mouse-derived anti-hROR1 mAb, detected with anti-mouse IgG; also called UC-102 mAb
B4: UC-104 (antibody, V domains shown)
VH: EVQLLETGGGLVQPGGSRKLSCAASGFTFSNYGMHWVRQAPGKGLEWVAHISRYSDTIYYADAVKGRFTISRDNAKNTLFLQMTTLRSEDTAIYYCTSAMDYWGQGTSVTVSS
VL: DIQMTQTTSSLSASLGDRVTISCRASQDISNYLNWFQQKPDGTIKLLIYYTSRLHSGVPSRFSGSGSGTDYSLTISNLEQEDIATYFCQQGNTLPFTFGSGTKLEIKR
notes: Mouse-derived anti-hROR1 mAb, detected with anti-mouse IgG; also called UC-104 mAb
B5: UC-105 (antibody, V domains shown)
VH: EVKLVESGGGLVQPGGSRKLSCAASGFTFSSYGMHWIRQTPDKGLEWVAYISSNSDHIFYTDTVKGRFTISRDNAKNTLFLQMTSLRSEDTAMYYCASRMDYWGQGTSVTVSS
VL: B4 VL with Y32H, F36Y, I44V, E81G, N92S, F96Y, S100G
notes: as for B1
B6: UC-103 (antibody, V domains shown)
VH: EIQLQQSGPVLVKPGASVKVSCKASGYAFTAYNIHWVRQSHGKRLEWIGSFDPYDGGSSYNQKFKDKATLTVDKSSTTAYMHLNSLTSEDSAVYYCARGWYYFDYWGHGTTLTVSS
VL: DVQITQSPSYLAASPGETITINCRASKSISKYLAWYQEKPGKTNKLLIYSGSTLQSGIPSRFRGSGSGTDFTLTISSLEPEDFAMYYCQQHDESPYTFGEGTKLEIKR
notes: Mouse-derived anti-hROR1 mAb, detected with anti-mouse IgG; also called UC-103 mAb
B7: UC-101 (antibody, V domains shown)
VH: EVQLLETGGGLVQPGGSRKLSCVASGFSFSSYGMHWVRQAPEKGLEWVAYIGGTSNTIYFADTVKGRFTISRDNAKNTLFLQMASLRSEDTAMYYCARTNLLGMDYWGQGTSVTVSS
VL: QIVLTQSPTIMSASPGEKVTMTCSASSSVSDMYWYQQKPGSSPRLLIYDTSNLASGVPVRFSGSGSGTSYSLTISRMEAEDAATYYCQQWISYTFGGGTKLEIKR
notes: Mouse-derived anti-hROR1 mAb, detected with anti-mouse IgG; also called UC-101 mAb

The target of one experiment is T1, hROR1 with a single amino acid substitution at position 346 (threonine to serine) (human, UniProt Q01973 30-406).
T1 construct: Recombinant mutant of the hROR1 extracellular domain; also called hROR1 T346S
T1 sequence (Q01973 30-406 T346S limits assumed): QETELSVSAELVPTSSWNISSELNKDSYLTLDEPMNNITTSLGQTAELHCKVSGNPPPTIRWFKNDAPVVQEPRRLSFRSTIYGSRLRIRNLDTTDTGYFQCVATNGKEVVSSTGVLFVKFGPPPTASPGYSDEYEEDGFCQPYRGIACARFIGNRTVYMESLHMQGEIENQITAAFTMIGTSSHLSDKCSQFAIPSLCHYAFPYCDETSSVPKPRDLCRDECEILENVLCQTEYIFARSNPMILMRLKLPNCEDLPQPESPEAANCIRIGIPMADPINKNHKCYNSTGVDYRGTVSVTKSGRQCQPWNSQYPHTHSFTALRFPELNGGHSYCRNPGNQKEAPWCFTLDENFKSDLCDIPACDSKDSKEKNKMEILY
Nature of the experiment: binding to point-mutated hROR1; blot in FIG. 6. From the text:
Neither of the antibody reacts with mROR1 protein. […] We generated recombinant hROR1 proteins having either the mouse or human amino acid residue at this position only.
As for B1, the binding result is “no binding”.

The target in the next experiment is T2, extracellular domain of human ROR1 (human, UniProt Q01973 30-406).
T2 construct: also called hROR1; hROR1 extracellular recombinant protein
T2 sequence (Q01973 30-406 limits assumed): as the sequence (Q01973 30-406 T346S limits assumed) above, with S317T counted along it
Put plainly: blot, non-denaturing gel. The text has this: (§1) Schematics of the chimeric constructs of the extracellular portion of ROR1 used to map the domain of hROR1 bound by each of the mAb in this disclosure. The dark regions of each construct indicate hROR1, light portions denote regions of mROR1, and hatched portions indicate deleted regions. Arrows mark the boundaries between the mouse and hROR1 regions for constructs #5, #6, #13 and #14, which depict the first 160 amino acids of the extracellular region that includes the Ig-like domain. The amino acids that differ between human and mROR1 are indicated by the single letter abbreviation at that position. (B) Each of these recombinant proteins were separated in non-denaturing polyacrylamide gel, transferred onto nylon, probed with the anti-hROR1 mAb indicated on the left, and detected with an anti-mouse IgG antibody conjugated with horse radish peroxidase. […] None of the antibody bind to mROR1.
Consider B1, for which the binding result is “binds”.

The target in another experiment is T1, hROR1 with a single amino acid …. Put plainly: binding to point-mutated hROR1.
Turning to B2, the binding result is listed as “no binding”.

The next experiment deals with T3, hROR1 with a single amino acid substitution at position 138 (glutamic acid to lysine) (human, UniProt Q01973 30-406).
T3 construct: Recombinant mutant of the hROR1 extracellular domain; also called hROR1 E138K
T3 sequence (Q01973 30-406 E138K limits assumed): as the sequence (Q01973 30-406 T346S limits assumed) above, with E109K, S317T counted along it
Nature of the experiment: binding to point-mutated hROR1.
Regarding B3, the binding result is reported as “no binding”.

For B4, the binding result was “no binding”.

Turning to B5, the binding result is listed as “no binding”.

As for B6, the binding result is “no binding”.

Consider B7, for which the binding result is “no binding”.

The target in another experiment is T2, extracellular domain of human ROR1. Put plainly: ELISA screening. In general terms: In an ELISA, binding on a coated surface is turned into a signal by an enzyme label.
For the molecule B3, the binding result is “binds”.

Regarding B4, the binding result is on record as “binds”.

B5: the binding result is listed as “binds”.

Turning to B6, the binding result is “binds”.

In the case of B7, the binding result was “binds”.

Regarding B2, the binding result was “binds”.

In a further experiment the target is T4, extracellular domain of mouse ROR1 (mouse, UniProt Q9Z139 30-406).
T4 construct: also called mROR1; mROR1 protein
T4 sequence (Q9Z139 30-406 limits assumed): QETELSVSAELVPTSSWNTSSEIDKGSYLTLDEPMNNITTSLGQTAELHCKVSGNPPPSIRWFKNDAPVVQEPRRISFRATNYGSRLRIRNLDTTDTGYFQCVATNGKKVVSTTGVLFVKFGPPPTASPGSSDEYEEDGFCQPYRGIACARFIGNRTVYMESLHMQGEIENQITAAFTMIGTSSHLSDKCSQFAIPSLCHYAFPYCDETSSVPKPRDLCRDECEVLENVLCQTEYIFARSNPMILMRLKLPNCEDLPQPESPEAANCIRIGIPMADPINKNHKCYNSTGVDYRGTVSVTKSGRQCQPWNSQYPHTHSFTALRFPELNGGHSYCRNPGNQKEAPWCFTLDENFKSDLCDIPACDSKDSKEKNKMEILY
Nature of the experiment: blot of recombinant protein, non-denaturing gel.
From the text: as §1
Regarding B3, the binding result is “no binding”.

Regarding B4, the binding result is “no binding”.

For the molecule B5, the binding result is listed as “no binding”.

B6: the binding result is on record as “no binding”.

For the molecule B7, the binding result is listed as “no binding”.

Take B1: the binding result is given as “no binding”.

As for B2, the binding result is “no binding”.
